According to publication PMC5700921:

Biological target: T1, β-klotho (UniProt Q99N32)
T1 sequence: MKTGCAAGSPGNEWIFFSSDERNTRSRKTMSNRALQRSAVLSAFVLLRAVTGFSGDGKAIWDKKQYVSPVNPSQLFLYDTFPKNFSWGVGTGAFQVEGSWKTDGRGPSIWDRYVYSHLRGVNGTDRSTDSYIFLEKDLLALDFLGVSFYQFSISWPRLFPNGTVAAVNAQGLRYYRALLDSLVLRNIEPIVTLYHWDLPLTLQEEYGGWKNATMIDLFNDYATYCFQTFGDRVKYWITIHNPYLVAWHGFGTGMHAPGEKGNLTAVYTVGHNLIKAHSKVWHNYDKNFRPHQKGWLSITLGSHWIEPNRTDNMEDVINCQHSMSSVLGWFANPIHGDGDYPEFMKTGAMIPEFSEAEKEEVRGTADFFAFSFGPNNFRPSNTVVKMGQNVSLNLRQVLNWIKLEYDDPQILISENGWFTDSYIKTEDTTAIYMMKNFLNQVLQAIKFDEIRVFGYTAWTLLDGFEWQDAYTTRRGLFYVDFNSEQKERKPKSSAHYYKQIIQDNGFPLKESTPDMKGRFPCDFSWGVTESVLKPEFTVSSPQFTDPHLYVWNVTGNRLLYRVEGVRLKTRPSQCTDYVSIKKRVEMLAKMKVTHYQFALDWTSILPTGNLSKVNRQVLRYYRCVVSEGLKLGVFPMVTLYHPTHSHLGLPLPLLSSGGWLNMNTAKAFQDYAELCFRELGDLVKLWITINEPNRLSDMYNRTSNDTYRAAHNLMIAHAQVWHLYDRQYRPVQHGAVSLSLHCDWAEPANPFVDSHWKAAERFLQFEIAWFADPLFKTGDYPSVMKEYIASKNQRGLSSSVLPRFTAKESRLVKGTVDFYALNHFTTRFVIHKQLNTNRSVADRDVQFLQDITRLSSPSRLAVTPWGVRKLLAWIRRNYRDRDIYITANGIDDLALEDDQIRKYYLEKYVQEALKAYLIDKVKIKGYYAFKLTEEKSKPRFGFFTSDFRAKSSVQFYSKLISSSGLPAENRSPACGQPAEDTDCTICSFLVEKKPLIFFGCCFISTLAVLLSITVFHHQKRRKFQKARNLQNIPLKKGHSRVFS

purified human fibroblast growth factor 21 (hFGF21), tag-free after TEV cleavage of MBP-hFGF21 (from UniProt Q9NSA1 29-209) (ligand)
EC50 of proliferation (MTT assay, 24 h) of β-klotho-transfected NIH-3T3 cells, hFGF21 at 0.01-500 ng/mL; untransfected cells showed no proliferative effect (data not shown): 0.3 nM
